Reference: article PMC3968158

What was measured:
[1] = target: CrkL SH2 domain, 9-108 (UniProt P46109); assay: GST pull-down from infected-cell lysate, anti-Tir blot; conditions: reference: WT Tir (Δtir EPEC + ptir); sites Y474
[2] = target: CrkII SH2 domain, 1-124 (UniProt Q64010); assay: as above; conditions: reference: WT Tir (Δtir EPEC + ptir); sites Y474

Tir (translocated intimin receptor) (from UniProt B7UM99) Tir Y474F (Δtir EPEC + ptirY474F)
binding against the reference [1]: lost | binding against the reference [2]: lost
